Test results from the supplement of paper PMC9170038.

System: MS2 coat protein
Test: apparent KD of MS2 coat protein; higher = weaker reporter binding
Conditions: Eterna round: R107
Protocol: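 RNA-MaP round R107: designed RNA switches with theophylline, tryptophan, arginine or FMN aptamers are transcribed on-chip within common flanks. They are titrated with SNAP-549-labelled MS2 coat protein in RNA-MaP buffer (100 mM Tris pH 7.5, 80 mM KCl, 4 mM MgCl2), without ligand or with the indicated ligand. Median apparent KD per design.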

[1] = input ligand: theophylline 20 uM
[2] = input ligand: theophylline 2 mM
[3] = input ligand: tryptophan 2.4 mM

Row | Sequence | apparent KD of MS2 coat protein (input ligand: arginine 13.2 mM) | apparent KD of MS2 coat protein (input ligand: none) | apparent KD of MS2 coat protein [1] | apparent KD of MS2 coat protein [2] | apparent KD of MS2 coat protein [3]
1 | AAUAGCAUGAGGAUCACCCAUGUAAAAGAUACCAGAGUGAUGAUCCUCCCUUGGCAGCUUAACGCUGAUUGAUUACAAUCAGCGA | 37 nM | 44.9 nM | 97.8 nM | 229 nM | 34.4 nM
2 | AAUCUGUCGGGUGAUACCAGCCUCGGCACGUCUCGUGCCGAACAUGAGGAUCACCCAUGUGGCCCUUGGCAGCACAUGACAAAUC [Teaton] | 71.8 nM |  | 729 nM |  | 606 nM
3 | AAUGUAUGGCACAUGAGGAUCACCCAUGUGCGAGGACCGGUACGGCCGCCACUCGGUCCUGGAUUCUUAUUACUAUACAUUAAUG [XTryp A #16] | 14 nM |  | 18.9 nM | 15.4 nM | 
4 | AAUUAAACAUCGGCCGCCACUUACUCAUGAGGUAACAACAUGAGGAUCACCCAUGUUUGAGGAUCAAGGACCGGGAUGUAAUUUU [AstrosSSTryB#3] | 28 nM |  | 40.3 nM | 35.1 nM | 
5 | AAUUAUCAGUCGGCCGCCACUGACACAUGAGGAUCACCCAUGUAAUAUGGGUAAAAUUAACUGAACAGGACCGGGACAAAUGCUA [JR_SSTryptoB_Sub021] | 135 nM |  | 472 nM | 803 nM | 
6 | AAUUCCUCACAUGAGGAUCACCCAUGUGAAGGAGCGCGGAAUAACGCAGGUAGGUCGCACAUGGAAACCGCUGCGAAAGCAGCAA [MAT - Exclusion Arginine A - Mod of Eli - D26] | 13.1 nM | 18.7 nM | 24 nM | 18.1 nM | 16.3 nM
7 | AAUUGGCACUGAAGGAGCGAGUUUACCUAAAUAACAUGAGGAUCACCCAUGUAAAAUGGGACUCAGGUAGGUCGCAGUUGUCAAA [Same State Arginine B GF 22] | 48 nM | 57.6 nM | 76.4 nM | 63.7 nM | 61.5 nM
8 | AAUUGGGUUGGUGAGGUGGUUGGAGGCGAUACCAGCGUGGAAACACGCCCUUGGCAGCGCCAGGACAUGAGGAUCACCCAUGUAA [Praha] | 32.1 nM | 260 nM | 486 nM | 713 nM | 205 nM
9 | AAUUGGGUUGGUGAGGUGGUUGGAGGCGAUACCAGCGUGGAAACACGCCCUUGGCAGCGCCAGGACAUGAGGAUCACCCAUGUUC [Ostrava] | 19.6 nM |  | 36 nM |  | 22.1 nM
10 | ACACAUGACAGAAGGAGCGGAAUGAACACACAUGAGGAUCACCCAUGUUUUUUUUGUGUUUUCCAGGUAGGUCGCUGACAUGAGG [#20 Same State - Arginine B] | 11.2 nM | 8.99 nM | 20.7 nM | 9.54 nM | 8.95 nM
11 | ACACAUGAGGAUCACCCAUGUGCGCUGGAAGGAGCGCAGAAUCAUGCAGGUAGGUCGCCAGUGCCCAUUACUAGAGGGAUAAGAG [Onriri] | 44.5 nM | 75.8 nM | 101 nM | 102 nM | 64.6 nM
12 | ACACAUGAGGAUCACCCAUGUGCGCUGGAAGGAGCGCAGAAUCAUGCAGGUAGGUCGCCAGUGCCCUUCGAUAAAGGGAAAAGAG [Erbienes] | 42.4 nM | 97.4 nM | 72 nM | 106 nM | 69.1 nM
13 | ACACAUGAGGAUCACCCAUGUGCGCUGGAAGGAGCGCAGAAUCAUGCAGGUAGGUCGCCAGUGCCCUUUGAUAAAGGGAAAAGAG [Reor] | 52.2 nM | 43.3 nM | 99.7 nM | 76.9 nM | 64.3 nM
14 | ACAUGAAGAACAGCGGUGGGCGCGCUCGAUACCAGUACUUUGAAAUACCCUUGGCAGCGACAUGAGGAUCACCCAUGUGAGAUGA [XTheo A #3] | 13 nM | 16.6 nM | 25.6 nM | 49.5 nM | 15.7 nM
15 | ACAUGAAGAACAGCGGUGGGCGCGCUCGAUACCAGUAUUUUAACCUACCCUUGGCAGCGACAUGAGGAUCACCCAUGUGAGAUGA [XTheo A #7] | 18.5 nM |  | 26.8 nM |  | 16.6 nM
16 | ACAUGAAGAUUAAUCGUGGGCAUACUCGAUACCAGUAUUUUAACCUACCCUUGGCAGCGACAUGAGGAUCACCCAUGUGAGAUGA [XTheo A #8] | 19.9 nM |  | 23.5 nM |  | 22.8 nM
17 | ACAUGAGACAUGGAUACCAGCGACAUGAGGAUCACCCAUGUAUGAGGAUCACCCAUGUUAUGCCCUUGGCAGCCACAAACAUGAG [.PLMULLINP] | 19.8 nM | 13.9 nM | 30.8 nM | 147 nM | 15.2 nM
18 | ACAUGAGCAUCAGCCUUGUAGGAACUAGAUACCAGCCCAACAUGAGGCCCUUGGCAGCUGACAACAUGAGGAUCACCCAUGUCAC [Exclusion - Theophylline A #1] | 20.1 nM |  | 36.3 nM |  | 38.4 nM

Row | Sequence | apparent KD of MS2 coat protein (input ligand: arginine 13.2 mM) | apparent KD of MS2 coat protein (input ligand: none) | apparent KD of MS2 coat protein [1] | apparent KD of MS2 coat protein [2] | apparent KD of MS2 coat protein [3]
19 | ACAUGAGGAUCACCCAUGUAAUGGCACGAUACCAGCUGAUCCCGUGGCCCUUGGCAGCGUCCGGUGUGGUCCGCCGGGUUGGACC [HHHMULLIN] | 59 nM | 26 nM | 49.1 nM | 31.1 nM | 36.2 nM
20 | ACAUGAGGAUCACCCAUGUAAUUAACAGAAGGAGCGUGAUGGAUCACAGGUAGGUCGCUGUACUUAGAAAUAACUCUCAUGAAUA [JR_Nu_SSArginiA_Sub024] | 15.2 nM | 18.2 nM | 27.6 nM | 16.6 nM | 17.1 nM
21 | ACAUGAGGAUCACCCAUGUACAUGACGGAAGGAGCGUGCAAAAGCACAGGUAGGUCGCCGAUCUACAUAUUGGGUAUUAUAUUUU [#29 Exclusion - Arginine A] | 15.4 nM | 19.4 nM | 35.7 nM | 28.3 nM | 24.2 nM
22 | ACAUGAGGAUCACCCAUGUAUGACUAUCCUCGAGGACCGGUACGGCCGCCACUCGAACGAGUGGCUCGCGAGUGCGCACUCGCGG [5'end-1] | 12.4 nM | 11.4 nM | 15.6 nM | 12.9 nM | 11.6 nM
23 | ACAUGAGGAUCACCCAUGUAUUACCGGGAAGGAGCGGCCGGAAGGCCAGGUAGGUCGCUCGGCGUCGUGCUGUAAAGCACGACGA [#1 Same State - Arginine A Attempt #27 (HarryS)] | 8.95 nM | 14 nM | 18.4 nM | 12.2 nM | 11.6 nM
24 | ACAUGAGGAUCACCCAUGUCAGGGCACGAUACCAGCUGAUCCGAUGGCCCUUGGCAGCGUUACGUGUGGUCAUGAGGAUCACCCG [pjbmullin] | 55.5 nM | 59.3 nM | 101 nM | 76.8 nM | 64.7 nM
25 | ACAUGAGGAUCACCCAUGUCUGCCACUGAUACCAGCGGAAGCCAACGCCCUUGGCAGCAGAACAUGAGGAUCACCCAUGUAGGCA [Same State Theophylline A GF26] | 52.8 nM |  | 180 nM |  | 256 nM
26 | ACAUGAGGAUCACCCAUGUGAAGGCACGAUACCAGCUGAUCCCGUGGCCCUUGGCAGCGUCCGGUUUGGUCCGGCGGAUGGGACG [vvamullin] | 13.1 nM | 18.8 nM | 33.6 nM | 21.9 nM | 23 nM
27 | ACAUGAGGAUCACCCAUGUGCAGAACGGAUACCAGCGUCCUGGUACGCCCUUGGCAGCCGGACAUGAGGAUCACCCAUGUGUGGA [Exclusion Theophylline A GF29] | 56 nM |  | 161 nM |  | 105 nM
28 | ACAUGAGGAUCACCCAUGUUAAACAGGGUGCGAGGACCGGUACGGCCGCCACUCGGACAUUAUUACGAGUGAAUGGCAACGAUGU [#12 Exclusion Tryptophan A] | 26.5 nM |  | 24.1 nM | 24.4 nM | 
29 | ACAUGAGGAUCACCCAUGUUCCUCAUUGAUACCAGUGAAUUUAGACGCCCUUGGCAGCGAGUUUUUUUAUAAGAUGUUUUUUUUU [6.H] | 244 nM |  | 829 nM |  | 1040 nM
30 | ACAUGUUGGUGGUAUCUACGAAGGCGGAAACGAGGACCGGUACGGCCGCCACUCGGCGACAUGAGGAUCACCCAUGUGGUUAAAA [Exclusion - Tryptophan A (Freestyle 5)] | 28.8 nM |  | 96.9 nM | 254 nM | 
31 | ACAUUUAACUGAAGGAGCGUGAUAUACAUGAGGAUCACCCAUGUGUCUUUCAUGAAUAAUUCACAGGUAGGUCGCAGACUAAUGA [JR_ExcArginiB_Sub008] | 40.4 nM | 36.1 nM | 50.3 nM | 45.4 nM | 37.6 nM
32 | ACAUUUAACUGAAGGAGCGUGAUAUGUACAUGAGGAUCACCCAUGUCUUACAUGUGAUAUUCACAGGUAGGUCGCAGACUAAUGA [JR_ExcArginiB_Sub004] | 22.7 nM | 18.8 nM | 23.2 nM | 23 nM | 20.3 nM
33 | ACCUACACGGAGACGUGUAGGAGUAAUGAUACCAGCAUGGAGACAUGCCCUUGGCAGCGUUACAUGAGGAUCACCCAUGUGGUGC [ETHA #6] | 19.1 nM |  | 37.4 nM |  | 21.6 nM
34 | ACCUCAAUGGAUGAUACCAGCUCAAGGACGAACAUGAGGAUCACCCAUGUGACGUGGUGUAGCCCUUGGCAGCAUACUGACACCU [theeternabot_sameState_MS2_Theo_B_24] | 34.6 nM |  | 49 nM |  | 39.1 nM
35 | ACGAACGCACCUGAGGAUCACCCAGGUGAUACCAGCCUGGAAACAGGCCCUUGGCAGCACCUAAAAUAAAGGUAACGUUCGAAUA [TheoAX7 #MicroSwitchBubble #AlternativeMS2] | 41.1 nM | 74.2 nM | 165 nM | 173 nM | 61.9 nM
36 | ACGACGCAUACAGAUACCAGUAGCCGAGAAACAUGAGGAUCACCCAUGUCGAGCGACAACUGCCCUUGGCAGCUGUAUGCGUCAG [SSTheo B #12] | 8.02 nM |  | 10.3 nM |  | 8.02 nM
